Patent publication US20150266936A1
Starred links: 1 amine or outer side, 2 acyl side, 3 side chain; linkers in the order of their positions; H or OH if unused. Non-standard residues stand in square brackets, D forms with d. No end group written: not given here. AO = 2-amino-3-(2-(aminooxy)acetamido)propanoic acid, O=C(CON[*:3])NC[C@H](N[*:1])C(=O)[*:2]

Tests used:
[1] = target: αvβ3, αvβ5, and α5β1 integrins on U87MG cells (human) (UniProt P06756); assay: ratio of IC50 values, competition binding on U87MG cells
[2] = target: αvβ3, αvβ5, and α5β1 integrins on U87MG cells (human) (UniProt P06756); assay: competition binding on U87MG cells, flow cytometry; competitor 5 nM Alexa488-labeled AgRP 7C; 4 °C, 10 h
[3] = target: αvβ3, αvβ5, and α5β1 integrins on U87MG cells (human) (UniProt P06756); assay: competition binding on U87MG cells, flow cytometry; competitor 0.25 nM Alexa488-labeled EETI 2.5F; 4 °C, 10 h
[4] = target: αvβ3, αvβ5, and α5β1 integrins on U87MG cells (human) (UniProt P06756); assay: cell-based or functional assay

Row | Binder | fold increase of apparent binding affinity compared to the monomer [1] | IC50 [2] | IC50 [3] | Adhesion EC50 (nM), U87MG cell adhesion to fibronectin [4] | inhibition of U87MG proliferation, 10 nM, 72 h (AlamarBlue) [4] | inhibition of U87MG proliferation, 100 nM, 72 h (AlamarBlue) [4] | inhibition of U87MG proliferation, 500 nM, 24 h (AlamarBlue) [4] | inhibition of U87MG proliferation, 500 nM, 48 h (AlamarBlue) [4] | inhibition of U87MG proliferation, 500 nM, 72 h (AlamarBlue) [4] | inhibition of U87MG proliferation, 1000 nM, 72 h (AlamarBlue) [4] | fold more effective than the monomer in preventing U87MG cell adhesion [4] | fold more potent than Cilengitide at inhibiting U87MG cell proliferation [4]
1 | GCVRLHESCLGQQVPCCDPAATCYCYGRGDNDLRCYC[AO] (designed binder, not fully specified (residue 38, bridges); ends and bridges not checked; also: homodimer: two copies joined by oxime-bonded dialdehyde linker at X38) [AgRP 7C Dimer] | 4 fold | 3.2 nM |  |  |  |  |  |  |  |  |  | 
2 | GCVRLHESCLGQQVPCCDPAATCYCYGRGDNDLRCYCR (designed binder, not fully specified (bridges); cysteine pairing not given here) [AgRP 7C] |  | 13 nM |  |  |  |  |  |  |  |  |  | 
3 | GCPRPRGDNPPLTCKQDSDCLAGCVCGPNGFCG (designed binder) [EETI 2.5F] |  |  | 1.64 nM | 180 nM | 15% | 30% | 37% | 44% | 50% | 60% |  | 

Continued, values first:

Row | fold increase of apparent binding affinity compared to the monomer [1] | IC50 [2] | IC50 [3] | Adhesion EC50 (nM), U87MG cell adhesion to fibronectin [4] | inhibition of U87MG proliferation, 10 nM, 72 h (AlamarBlue) [4] | inhibition of U87MG proliferation, 100 nM, 72 h (AlamarBlue) [4] | inhibition of U87MG proliferation, 500 nM, 24 h (AlamarBlue) [4] | inhibition of U87MG proliferation, 500 nM, 48 h (AlamarBlue) [4] | inhibition of U87MG proliferation, 500 nM, 72 h (AlamarBlue) [4] | inhibition of U87MG proliferation, 1000 nM, 72 h (AlamarBlue) [4] | fold more effective than the monomer in preventing U87MG cell adhesion [4] | fold more potent than Cilengitide at inhibiting U87MG cell proliferation [4] | Binder
4 |  |  | 1.57 nM |  |  |  |  |  |  |  |  |  | GCPRPRGDNPPLTC[AO]QDSDCLAGCVCGPNGFCG (designed binder, disulfide (positions not given here)) [EETI 2.5F_AO]
5 | 46 fold |  | 0.036 nM | 8 nM | 28% | 52% | 53% | 68% | 69% | 70% | 100 fold | 100 fold | GCPRPRGDNPPLTC[AO]QDSDCLAGCVCGPNGFCG (designed binder, not fully specified (residue 15, bridges); ends and bridges not checked; also: homodimer: two copies joined by oxime-bonded dialdehyde linker at X15) [EETI 2.5F Dimer]
